# Experimental data from patent US20210388105A1 (ELPISCIENCE SUZHOU BIOPHARMA, published 2021).
# Substitutions are numbered along the chain they refer to.
# T1: KW27-20 (human CD39 mutant, C-terminal EGFP) (human, UniProt P49961 1-510)
# T1 construct: expressed on HEK293F cells; not shown: C-terminal EGFP fusion (vector pCMV3-GFPSpark)
# T1 chain: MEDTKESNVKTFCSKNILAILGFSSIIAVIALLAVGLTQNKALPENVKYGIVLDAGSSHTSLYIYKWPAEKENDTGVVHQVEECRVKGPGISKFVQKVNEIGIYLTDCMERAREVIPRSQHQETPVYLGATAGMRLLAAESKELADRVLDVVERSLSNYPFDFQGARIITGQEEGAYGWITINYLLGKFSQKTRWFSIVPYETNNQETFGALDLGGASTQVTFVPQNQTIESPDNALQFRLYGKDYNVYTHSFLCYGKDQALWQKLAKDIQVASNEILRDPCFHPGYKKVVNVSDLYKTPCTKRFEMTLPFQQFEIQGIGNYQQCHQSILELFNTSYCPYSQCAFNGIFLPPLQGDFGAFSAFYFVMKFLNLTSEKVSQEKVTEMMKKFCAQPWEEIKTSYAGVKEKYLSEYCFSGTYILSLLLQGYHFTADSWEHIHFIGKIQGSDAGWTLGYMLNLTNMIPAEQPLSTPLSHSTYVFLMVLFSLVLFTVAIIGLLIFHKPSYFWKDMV
# T2: mouse CD39 (full length, on CHOK1-mCD39 cells) (mouse, UniProt P55772 1-510)
# T2 construct: whole, on cells
# T2 sequence (looked up): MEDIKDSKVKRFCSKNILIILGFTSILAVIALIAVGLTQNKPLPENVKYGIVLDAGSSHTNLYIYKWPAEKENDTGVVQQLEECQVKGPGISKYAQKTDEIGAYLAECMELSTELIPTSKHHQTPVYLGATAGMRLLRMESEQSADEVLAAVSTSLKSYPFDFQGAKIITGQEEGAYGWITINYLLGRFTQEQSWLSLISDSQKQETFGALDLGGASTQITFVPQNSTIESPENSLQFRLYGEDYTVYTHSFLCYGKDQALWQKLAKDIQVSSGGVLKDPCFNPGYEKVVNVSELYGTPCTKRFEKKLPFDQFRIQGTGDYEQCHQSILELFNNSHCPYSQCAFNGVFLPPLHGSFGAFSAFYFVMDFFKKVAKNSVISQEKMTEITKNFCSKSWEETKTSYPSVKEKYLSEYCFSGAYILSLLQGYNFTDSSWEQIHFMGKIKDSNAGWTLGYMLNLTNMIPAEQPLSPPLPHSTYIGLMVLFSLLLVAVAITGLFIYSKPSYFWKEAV
# T3: KW27-2 (human CD39 mutant, C-terminal EGFP) (human, UniProt P49961 1-510)
# T3 construct: expressed on HEK293F cells; not shown: C-terminal EGFP fusion (vector pCMV3-GFPSpark)
# T3 chain: T1 chain with V81S, E82A, R111A, V115A, A138R, A139M, K142E
# B1: hu23.H5L5 (antibody, V domains shown)
# VH: QVQLVQSGAEVKKPGASVKVSCKASGYNLKDTFLHWVRQAPGQGLEWMGRIDPANGNIKYDPKFQGRVTITADTSANTAYMELISLRSEDTAVYYCANSPYYYGSGYRIFDVWGQGTTVTVSS
# VL: QIVLTQSPATLSLSPGERATLSCSAFSSVNYMHWYQQKPGQAPRLLIYTTSNLASGIPTRFSGSGSGTSYTLTISSLEPEDFAVYYCQQRSTYPFTFGQGTKLEIK
# notes: humanized c23
# B2: Antibody 9-8B (antibody, V domains shown)
# VH: QIQLVQSGPELKKPGETVKISCKASGYTFTHYGMNWVKQAPGKGLKWMGWINTYTGELTYADDFKGRFAFSLETSASTAYLQINNLKNEDTATYFCARRAYYRYDYVMDYWGQGTSVTVSS
# VL: DIVMTQSQKFMSTSVGDRVSVTCKASHNVGTNVAWYQQKPGQSPKALIYSASYRYSGVPGRFTGSGSGTDFTLTISNVQSEDLAEYFCHQYNNYPYTFGGGTKLEIK
# B3: mAb14 (antibody, V domains shown)
# VH: EVKLEESGGGLVQPGGSMKLSCVASGFTFSKYWMNWVRQSPEKGLEWVAEIRLKSNKYGTHYAESVKGRFTISRDDSKNNVYLQMNNLRPEDTGIYYCTTQLDLYWFFDVWGAGTTVTVSS
# VL: DIVMTQSPAILSVTPGDRVSLSCRASQSISDYLHWYQQKSHESPRLLIKYASQSISGIPSRFSGSGSGSNFTLSINSVEPEDVGVYFCQNGHSLPLTFGAGTKLELR
# notes: mouse hybridoma antibody
# B4: c35 (antibody, V domains shown)
# VH: EVRLQQSGAELVKPGASVKLSCTASGFNIEDTYVHWMKQRPEQGLEWIGRIDPAIDNSKYDPKFQGKATITAVSSSNTAYLQLSSLTSEDTAVYYCALYDGYNVYAMDYWGQGTSVTVSS
# VL: DIVMTQAAFSNPVTLGTSASISCRSSKNLLHSNGITYLYWYLQRPGQSPQLLIYRASTLASGVPNRFSGSESGTDFTLRISRVEAEDVGVYYCAQLLELPHTFGGGTKLEIK
# notes: its making is not described; also called chimeric antibody c35
# Legend:
# [1] = biological target: T1, KW27-20 (human CD39 mutant, C-terminal …); test: FACS, mutant-EGFP on HEK293F cells
# How it was run: (§1)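 HEK293F cells were transfected with human CD39 mutants carrying C-terminal GFP and used 3 days later. Antibodies were titrated from 100 nM (3-fold, 11 points) and detected by FACS with AlexaFluor647 anti-hIgG. Relative binding was AlexaFluor647 intensity divided by GFP intensity.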
# [2] = biological target: T2, mouse CD39 (full length, on CHOK1-mCD39 …); test: FACS, CHOK1-mCD39 cells
# How it was run: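 Cells incubated 60 min at 4 °C with anti-CD39 antibodies in 4-fold serial dilution from 30 μg/ml in PBS/1% FBS/0.05% Tween-20; CHOK1-blank cells as negative control. Binding read by flow cytometry as mean fluorescence intensity; apparent affinity fitted from full binding curves.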
# [3] = biological target: T3, KW27-2 (human CD39 mutant, C-terminal …); test: FACS, mutant-EGFP on HEK293F cells
# How it was run: as §1
binder,measurement,setting,value
B1,binding result,[1],no binding (tested: 100 nM highest concentration)
B2,binding result,[2],no binding (tested: 30 µg/ml highest concentration)
B3,binding result,[2],no binding (tested: 30 µg/ml highest concentration)
B4,binding result,[3],no binding (tested: 100 nM highest concentration)
